Assay results published in the supplement of paper PMC10724198.
± gives the standard deviation of the averaged measurements.

Assays:
[1] = tested on: Saccharomyces cerevisiae; assay: protein stability index of tFT-peptide fusion (C-terminal peptide) (PSI (0-1 scale)); higher = more stable (slower turnover); conditions: genetic background: wild type; temperature: 30 C
[2] = tested on: Saccharomyces cerevisiae; assay: as above
Description: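 MPS profiling in S. cerevisiae of the tFT-X12 degron library: putative degron peptides plus stable controls, 12 aa, fused to the C-terminus of a sfGFP-mCherry timer. Cells are FACS-sorted into 8 mCherry/sfGFP bins and deep-sequenced. PSI runs from 0 (unstable) to 1 (stable). Backgrounds are wild type, das1Δ and doa10Δ at 30 °C, and wild type, das1Δ, cdc34-1 and cdc53-1 at 37 °C; 2-3 technical replicates each.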

[3] = genetic background: cdc34-1, temperature: 37 C
[4] = genetic background: cdc53-1, temperature: 37 C
[5] = genetic background: das1 deletion, temperature: 30 C
[6] = genetic background: das1 deletion, temperature: 37 C
[7] = genetic background: doa10 deletion, temperature: 30 C
[8] = genetic background: wild type, temperature: 30 C
[9] = genetic background: wild type, temperature: 37 C
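Further: PSI is a weighted mean of sequencing reads over stability bins, variants kept only with over 10 reads, mCherry proximal and sfGFP distal, peptide attached via GGGS linker.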

| Sequence | protein stability index [1] | protein stability index [2, 3] | protein stability index [2, 4] | protein stability index [2, 5] | protein stability index [2, 6] | protein stability index [2, 7] | protein stability index [2, 8] | protein stability index [2, 9] |
| --- | --- | --- | --- | --- | --- | --- | --- | --- |
| PFLSLPFLFPSS | 0.531 ± 0.14 | 0.715 ± 0.026 | 0.769 ± 0.012 | 0.684 ± 0.0075 | 0.7675 ± 0.0052 | 0.687 ± 0.027 | 0.696 ± 0.027 | 0.757 ± 0.016 |
| ICQLLKFPLFWC | 0.113 ± 0.034 | 0.542 ± 0.025 | 0.567 ± 0.024 | 0.521 ± 0.024 | 0.7207 ± 0.0058 | 0.311 ± 0.019 | 0.288 ± 0.026 | 0.4916 ± 0.0032 |
| WFFTDIVMLVRV | 0.273 ± 0.0098 | 0.126 ± 0.014 | 0.12 ± 0.044 | 0.192 ± 0.026 | 0.277 ± 0.0094 | 0.237 ± 0.0069 | 0.193 ± 0.023 | 0.233 ± 0.018 |
| FVVWKDVLVMVR | 0.298 ± 0.029 | 0.132 ± 0.03 | 0.1451 ± 0.00045 | 0.2 ± 0.032 | 0.286 ± 0.0095 | 0.158 ± 0.0054 | 0.192 ± 0.034 | 0.257 ± 0.0093 |
| SSRPLSPQSLRL | 0.553 ± 0.17 | 0.637 ± 0.2 | 0.709 ± 0.043 | 0.601 ± 0.051 | 0.71 ± 0.0077 | 0.60715 ± 0.00031 | 0.605 ± 0.067 | 0.658 ± 0.032 |
| TVRVVMLRLLFT | 0.418 ± 0.021 | 0.452 ± 0.027 | 0.52 ± 0.025 | 0.346 ± 0.035 | 0.528 ± 0.0076 | 0.309 ± 0.02 | 0.33 ± 0.024 | 0.493 ± 0.018 |
| LSGDIPWSFVPV | 0.738 ± 0.033 | 0.743 ± 0.04 | 0.766 ± 0.046 | 0.654 ± 0.011 | 0.787 ± 0.02 | 0.673 ± 0.028 | 0.677 ± 0.031 | 0.75756 ± 0.0002 |
| SASPFYLPPPPV | 0.735 ± 0.024 | 0.709 ± 0.024 | 0.7371 ± 0.0058 | 0.679 ± 0.043 | 0.735 ± 0.017 | 0.675 ± 0.018 | 0.671 ± 0.023 | 0.731 ± 0.012 |
| CGLLWFYSFFLF | 0.38 ± 0.021 | 0.502 ± 0.019 | 0.491 ± 0.013 | 0.391 ± 0.04 | 0.5187 ± 0.0046 | 0.375 ± 0.012 | 0.316 ± 0.013 | 0.465 ± 0.018 |
| HVRLRFQPVLFV | 0.462 ± 0.0049 | 0.527 ± 0.027 | 0.5455 ± 0.0014 | 0.404 ± 0.029 | 0.5487 ± 0.0044 | 0.356 ± 0.01 | 0.382 ± 0.026 | 0.5139 ± 0.0024 |
| VIYNSALLLVRL | 0.391 ± 0.041 | 0.273 ± 0.031 | 0.225 ± 0.01 | 0.249 ± 0.031 | 0.407 ± 0.037 | 0.325 ± 0.014 | 0.25 ± 0.023 | 0.386 ± 0.01 |
| IYPPVSVTNLLV | 0.357 ± 0.1 | 0.6646 ± 0.0022 | 0.723 ± 0.0079 | 0.646 ± 0.036 | 0.723 ± 0.014 | 0.227 ± 0.029 | 0.255 ± 0.032 | 0.461 ± 0.0062 |
| FVFFRFSLLFFF | 0.337 ± 0.049 | 0.332 ± 0.022 | 0.344 ± 0.04 | 0.331 ± 0.029 | 0.449 ± 0.0046 | 0.269 ± 0.0034 | 0.225 ± 0.027 | 0.356 ± 0.014 |
| FTRWLVYCTPLC | 0.516 ± 0.024 | 0.554 ± 0.033 | 0.569 ± 0.0098 | 0.46 ± 0.011 | 0.586 ± 0.0022 | 0.437 ± 0.029 | 0.441 ± 0.012 | 0.567 ± 0.013 |
| FTEFWFFKQMSV | 0.171 ± 0.016 | 0.579 ± 0.019 | 0.761 ± 0.015 | 0.618 ± 0.031 | 0.7757 ± 0.0069 | 0.11 ± 0.01 | 0.126 ± 0.022 | 0.137 ± 0.04 |
| LPLCGLLLFLFF | 0.435 ± 0.0059 | 0.472 ± 0.024 | 0.5394 ± 0.0043 | 0.433 ± 0.024 | 0.5302 ± 0.0025 | 0.42 ± 0.024 | 0.42 ± 0.015 | 0.492 ± 0.022 |
| RSLSWCTKRRCC | 0.3718 ± 0.00091 | 0.595 ± 0.044 | 0.7011 ± 0.0057 | 0.675 ± 0.016 | 0.71892 ± 0.00035 | 0.221 ± 0.015 | 0.226 ± 0.022 | 0.454 ± 0.013 |
| FGVLLLFLFFLP | 0.413 ± 0.041 | 0.347 ± 0.0038 | 0.444 ± 0.02 | 0.337 ± 0.022 | 0.4673 ± 0.0036 | 0.322 ± 0.0086 | 0.323 ± 0.0085 | 0.427 ± 0.0068 |
| LFLSFLLLYFRP | 0.351 ± 0.039 | 0.269 ± 0.019 | 0.219 ± 0.022 | 0.311 ± 0.037 | 0.4223 ± 0.0015 | 0.439 ± 0.021 | 0.313 ± 0.015 | 0.402 ± 0.0086 |
| KLALVYLLIRGL | 0.125 ± 0.06 | 0.423 ± 0.015 | 0.496 ± 0.028 | 0.366 ± 0.031 | 0.5681 ± 0.00085 | 0.0641 ± 0.01 | 0.0862 ± 0.02 | 0.0975 ± 0.0076 |

| Sequence | protein stability index [1] | protein stability index [2, 3] | protein stability index [2, 4] | protein stability index [2, 5] | protein stability index [2, 6] | protein stability index [2, 7] | protein stability index [2, 8] | protein stability index [2, 9] |
| --- | --- | --- | --- | --- | --- | --- | --- | --- |
| HPLYWRCVVVLN | 0.15 ± 0.044 | 0.213 ± 0.034 | 0.243 ± 0.024 | 0.211 ± 0.026 | 0.3733 ± 0.00077 | 0.073 ± 0.012 | 0.066 ± 0.031 | 0.0862 ± 0.015 |
| LTCTSTPMACRV | 0.452 ± 0.0075 | 0.562 ± 0.067 | 0.589 ± 0.021 | 0.443 ± 0.026 | 0.596 ± 0.011 | 0.429 ± 0.015 | 0.475 ± 0.013 | 0.5859 ± 0.0028 |
| FGKGRSLLLVFS | 0.475 ± 0.016 | 0.548 ± 0.02 | 0.597 ± 0.022 | 0.378 ± 0.044 | 0.582 ± 0.0092 | 0.347 ± 0.015 | 0.395 ± 0.013 | 0.5765 ± 0.0039 |
| FFSQLFLEIVAA | 0.257 ± 0.031 | 0.0642 ± 0.024 | 0.0709 ± 0.031 | 0.179 ± 0.03 | 0.196 ± 0.011 | 0.14 ± 0.018 | 0.175 ± 0.029 | 0.171 ± 0.027 |
| WGCIFWFFDVRV | 0.386 ± 0.027 | 0.193 ± 0.0065 | 0.335 ± 0.015 | 0.229 ± 0.023 | 0.416 ± 0.018 | 0.203 ± 0.0046 | 0.207 ± 0.025 | 0.402 ± 0.026 |
| LRGIVSVWILRA | 0.249 ± 0.025 | 0.501 ± 0.034 | 0.56 ± 0.0093 | 0.441 ± 0.017 | 0.605 ± 0.0076 | 0.149 ± 0.0028 | 0.148 ± 0.0039 | 0.282 ± 0.0057 |
| RALSLPPLLLVL | 0.423 ± 0.023 | 0.386 ± 0.013 | 0.443 ± 0.038 | 0.319 ± 0.013 | 0.48 ± 0.011 | 0.338 ± 0.029 | 0.326 ± 0.029 | 0.4351 ± 0.0017 |
| LGFHFFFTLIFF | 0.381 ± 0.03 | 0.284 ± 0.054 | 0.274 ± 0.0087 | 0.279 ± 0.04 | 0.4 ± 0.031 | 0.4518 ± 0.0032 | 0.305 ± 0.039 | 0.37 ± 0.042 |
| CLFRVCLFILSI | 0.386 ± 0.0041 | 0.397 ± 0.019 | 0.49 ± 0.049 | 0.333 ± 0.038 | 0.489 ± 0.0053 | 0.3114 ± 0.00076 | 0.3 ± 0.028 | 0.467 ± 0.013 |
| WLGLFAFRRCLV | 0.31 ± 0.018 | 0.544 ± 0.03 | 0.583 ± 0.013 | 0.463 ± 0.018 | 0.5898 ± 0.0041 | 0.194 ± 0.012 | 0.223 ± 0.025 | 0.3983 ± 0.0017 |
| WVVWWFACVFGV | 0.309 ± 0.049 | 0.346 ± 0.009 | 0.404 ± 0.0089 | 0.286 ± 0.033 | 0.429 ± 0.019 | 0.264 ± 0.008 | 0.28 ± 0.019 | 0.413 ± 0.0073 |
| LLRFFPCFLGVN | 0.484 ± 0.022 | 0.653 ± 0.018 | 0.6962 ± 0.0039 | 0.657 ± 0.043 | 0.701 ± 0.012 | 0.43 ± 0.023 | 0.425 ± 0.032 | 0.579 ± 0.021 |
| RIIDRVSRLIML | 0.543 ± 0.089 | 0.765 ± 0.026 | 0.826 ± 0.019 | 0.689 ± 0.034 | 0.765 ± 0.015 | 0.453 ± 0.021 | 0.482 ± 0.034 | 0.627 ± 0.032 |
| CFGFMFLLLFDV | 0.405 ± 0.02 | 0.3073 ± 0.0011 | 0.312 ± 0.0066 | 0.334 ± 0.024 | 0.448 ± 0.013 | 0.467 ± 0.011 | 0.317 ± 0.027 | 0.418 ± 0.0039 |
| YDVQIEFCVVEV | 0.442 ± 0.0093 | 0.601 ± 0.035 | 0.57 ± 0.019 | 0.365 ± 0.03 | 0.5694 ± 0.0029 | 0.347 ± 0.004 | 0.379 ± 0.017 | 0.547 ± 0.019 |
| SARSYLTERLLA | 0.252 ± 0.0087 | 0.6255 ± 0.0024 | 0.714 ± 0.016 | 0.599 ± 0.021 | 0.721 ± 0.022 | 0.13 ± 0.018 | 0.162 ± 0.022 | 0.239 ± 0.0068 |
| LPPFGLFLFVFI | 0.366 ± 0.018 | 0.437 ± 0.034 | 0.466 ± 0.0094 | 0.31 ± 0.044 | 0.517 ± 0.0074 | 0.274 ± 0.008 | 0.285 ± 0.029 | 0.498 ± 0.01 |
| CASIVDGFAFRF | 0.7662 ± 0.0074 | 0.752 ± 0.0086 | 0.782 ± 0.03 | 0.632 ± 0.011 | 0.786 ± 0.0097 | 0.646 ± 0.023 | 0.679 ± 0.046 | 0.7472 ± 0.0015 |
| SWVVLVSFLSWR | 0.357 ± 0.0065 | 0.2561 ± 0.0015 | 0.3502 ± 0.0028 | 0.245 ± 0.031 | 0.4285 ± 0.003 | 0.233 ± 0.0082 | 0.232 ± 0.032 | 0.424 ± 0.031 |
